Biological target: Monoclonal anti-HIV-1 Env SF12 (IgG)
Test: ELISA
Conditions: highest antibody concentration of the titration (last point of the curve, between 1 and 10 µg/ml); parent: est. 3.3; read off a plot

YU2 gp140 foldon trimer (wild type) A281T; D368K
response: 2.7 OD

Source: paper PMC6591006
